Earlier results, collected in PMC9739296.

Target: DR4 (Homo sapiens) (UniProt O00220)
UniProt O00220, sequence (O00220 24-468): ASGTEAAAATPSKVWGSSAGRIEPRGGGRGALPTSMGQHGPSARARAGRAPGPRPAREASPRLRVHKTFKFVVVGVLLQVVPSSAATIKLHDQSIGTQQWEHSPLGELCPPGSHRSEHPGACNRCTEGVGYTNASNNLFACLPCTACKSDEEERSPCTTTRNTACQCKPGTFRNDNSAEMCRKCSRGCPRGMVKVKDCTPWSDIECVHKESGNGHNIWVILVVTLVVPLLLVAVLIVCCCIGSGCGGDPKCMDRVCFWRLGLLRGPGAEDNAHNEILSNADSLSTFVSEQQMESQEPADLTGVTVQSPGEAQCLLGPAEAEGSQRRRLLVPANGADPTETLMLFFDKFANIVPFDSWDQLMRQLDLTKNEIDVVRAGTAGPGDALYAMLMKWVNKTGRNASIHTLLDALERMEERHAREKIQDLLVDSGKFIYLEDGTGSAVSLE

TRAIL (from UniProt P50591)
Kd: 0.07 µM
